# Experimental data as given in the DeepSol protein solubility set.
# Experiment: soluble on expression in E. coli; label from the status in PepcDB or PDB records
row,Sequence,soluble on expression in E. coli
1,MNQYPDFDQKLYDDLRRGKEYAFAAVFDRYHRLLYTIAYRFLKSEEEAEDAVQYLFMKLWEQRETFSFESGIRSLLFTILKNYILNELRHRNLVFEKLYEMAQQVNDEDEDAFLTRFEHGELRKSLRVAIDKLPPQKQKICLLKIEYGLSNQEIADRMGITVPTVKSHYTQAIKALRNAIESLIMWFPVIWIYLID,not soluble
2,MNRIKEVLEEKGIKQTWLAEKLGKSFSIVNSYVCNRRQPSLDILFEIAKILEVDVRVLIGTKENRQKSK,not soluble
3,MNRILLYVHFNKYNKISAHVYYQLEQMRSLFSKIVFISNSKVSHEDLKRLKNHCLIDEFLQRKNKGFDFSAWHDGLITMGFDKLEEFDSLTIMNDTCFGPIWEMAPYFENFEEKKAVDFWGITNNRGTKAFKEHVQSYFMTFKNQVIQNKVFQQFWQSIIEYENVQEVIQHYETQLTSILLNEGFSYQTVFDTRKAESSFMPHPDFSYYNPTAILKHHVPFIKVKAIDANQHIAPYLLNLIRETTNYPIDLIVSHMSQISLPDAKYLLSQKYLNCQRLAKQTCQKVAVHLHVFYVDLLDEFLTAFEDWNFHYDLFITTDSDIKRKEIKEILQRKGKTADIRVTGNRGRDIYPMLLLKDKLSQYDYIGHFHTKKSKEADFWAGESWRKELIDMLVKPADSILSAFETDDIGIIIADIPSFFRFNKIVNAWNEHLIAQEMMSLWRKMDVKKQIDFQAMDTFVMSYGTFVWFKYDALKSLFDLELTQNDIPSEPLPQNSILHAIERLLVYIAWGNSYDFRILEHHHHHH,not soluble
4,MNRLQGMELFVEVARTLSFGRAAENLAIPKSTLSRQVAELERSVGLRLLSRTTRRVELTEAGQLYFERCQRIVAEARIAHEELQNLVETPSGPLRVNMPADFGTDFLSEAFTEFSRRYPEVTFYLDLASPEHAERVFQTCDVSIEIGDLPDSTHIARLLGVLPAHLYASPDYLARHGEPQHPDDLPRHECIQFRAGTGRVTRWPLNSGERHVEITPGNRFSVNSVSMVRNLATLGAGIAILAPMGNVREDIESGRLKRILPDWLAGPFPVYAVTDTRMLPAKTRIFVEFLMERLSNKTLAGQNNPAFLNLR,not soluble
5,MNRLSIFVDGNNMFYAQQKNGWFFDPRRVLEYFKHEQSETTLINAFWYTGLKDPQDQRGFRDALISLGYTVRTKILKEYYDDTSGRYSQKANLDIEIVVDMFNTVDQYDRVVLFSGDGDFERAIELLRSKNTHITVVSTEGMIARELRNATDRYIDLNDIRDQIEKT,not soluble
6,MNRNKWQRVPAPNTRGAKMHGWVREMDEAYREVNGEYAVLVRTLNTKLGTVKHAAIRNATETDITWSEKQRIKNEIFGEEKQAIEFFPKQSELIDEANMYHLWILEDCELEFGIYE,not soluble
7,MNRREVRCAFSASKAARAQLLLRGKVRLEPLPTRPRTVLGLDASYSAKDGVGVGAAVLISLETLEPVDCRVYISRVCIPYIPGLLAFRELAVMAPAAAALSAEADVVMVDGHGIAHPRRFGIASHVGVILERPSIGVAKKKLVGTLVEGPGGMYVVQDGERLAIVLGTRPREVYVSPGHRITLEEAASIARATIRPGGWMPEPTRLADVISKALKTIIGGQSLINSALASLCRVKLGPRLEELERPLRRAGLEVELEHHHHHH,not soluble
8,MNRTAMRASQKDFENSMNQVKLLKKDPGNEVKLKLYALYKQATEGPCNMPKPGVFDLINKAKWDAWNALGSLPKEAARQNYVDLVSSLSPSLESSSQVEPGTDRKSTGFETLVVTSEDGITKIMFNRPKKKNAINTEMYHEIMRALKAASKDDSIITVLTGNGDYYSSGNDLTNFTDIPPGGVEEKAKNNAVLLREFVGCFIDFPKPLIAVVNGPAVGISVTLLGLFDAVYASDRATFHTPFSHLGQSPEGCSSYTFPKIMSPAKATEMLIFGKKLTAGEACAQGLVTEVFPDSTFQKEVWTRLKAFAKLPPNALRISKEVIRKREREKLHAVNAEECNVLQGRWLSDECTNAVVNFLSRKSKL,not soluble
9,MNRTLPLLPALALGVLLGLPASGQATCYRVTSVGSETTTSNTQIRPGEGTAGSWTGACDTCNGSLGLPSVVNVSDESFQPYPTLIASAVAPLTQYGATGGYDPERVFFRCSAGDAVYEMFSTNGDDLYSGYYTGADTVGNDIGLQDAYRTAWPNVLLRLTNVETGETITPIWKERQLSGLDIDSRGFQLVKAKNLAAVRAELYSAPLEAIRYYSPTILSQPYSYTQPAAYIAIKGPGLTAPTVGQAHVGGNWGGWYSNWPGAIGLYRYVTLKRYPTCAVMTVTPHVQFPSITLAEIDSGGVREAPFELTFKCQSGMTNGTGAGATALGIRVSSGALAASPALGLVNASGGLSYLLSDRYGEPGIARGVGIRIYRDGTPMTLLANENSAGGSNAEATGWYPAIGGATQANGGSGGIDLYRETFRARLEKLALGSQPGVTAGRVEATAQVVIRVQ,not soluble
10,MNRVEPPYDVKEALVFTQKMAQLSKALWKSIEKDWQQWLKPYDLNINEHHILWIAYQLNGASISEIAKFGVMHVSTAFNFSKKLEERGYLRFSKRLNDKRNTYVQLTEEGTEVFWSLLEEFDPTRNAVFKGSQPLYHLFGKFPEVAEMMCMIRHIYGDDFMEIFETSLTNIDNDFESVNGKLKKKAKDSAADEPAEELEPVNS,soluble
11,MNRWEKELDKYAELAVKVGVNIQPGQTLFVNAPLEAAPLVRKIAKTAYETGAKHVYVEWNDEALTYIKFHHAPEEAFSEYPMWRARAMEELAEQGAAFLSIYAPNPDLLKDVDPKRIATANKTAAQALANYRSAIMADRNCWSLISVPTPAWAQKVFGDLRDEEAIDKLWEAIFRITRIDHDDPIAAWRKHNDRLARIVDYLNNKQYKQLVYEAPGTNLTVELVDGHVWHGGAATSQSGVRFNPNIPTEEVFTMPHKDGVNGTVRNTKPLNYNGNVIDGFTLTFKDGQVVDFSAEQGYETLKHLLDTDDGARRLGEVALVPHQSPVSLSNLIFYNTLFDENAACHLALGKAYPTNIENGASLSKEELDRRGVNDSLVHVDFMIGSADLNIDGVTKDGKREPIFRSGNWAFELS,not soluble
12,MNRYITRGIANNLPNILQHQLWQLVSEREQEQTKDNTLVDYFHIFQFNTHRNQLYIKHKQERPAYVKTQKANINQPININKVYIIREDDVDLSYYIMLLPNEYLEHHHHHH,soluble
13,MNRYPGIPRNEWSAGWKRTACIVKAEDGSWGFGFTLHSGVTERIINDHLSKILIGRNCMSTEMLWDVMQQSTISYGTSGLSSFAISAVDNAIWDLKGKILDRPVYELIGGPQKDKIFCYASNTSFEYGTKNSIEWFLELGFKAVKLFLREGPESNLEGINRAEQLVASTREQVGKDVEIAVDAWMSLNNEYAVRLAEVLKPYRIKWLEDYLNPENLDGYQNLRNRIPWQTLATGEHWYSLYPFALAASKGIVDIFQPDLNWVGGITAGIKICHLAEAHGLSVIPHASTNYPYGQHLAFSMPSVPWAERSEGVSPPGVPLEEMVLLPGTPVIKDGYIIPSDAPGFGLEITEDWLRDRAV,soluble
14,MNSENSKWQAIQESTFALARKCEEFDSDGITVYLFSKTFQRYDYVNSAKVKQLFAENSPSETTNLVGVLQDAINSYFQRKSLGKTKPAGEVILVITDGAPVDSQAVCEVIIKATHLVESANELRISIIQVGSDSHATKFLKALDDHLQSVGAKFDICDTITLDELEITNLSDVLMKAITDLEHHHHHH,not soluble
15,MNSGNMQDTLDLEKKLRGYLFGTACADALGRPVEHLTLKQIKEKYGEKGILELPPNSSWTDDTQLMLVLARGLLHGAEFELPELMKHIAGELVLWLKEPDLGAGATTKGAALSLKDGIHWSESGLNSKTCGSLMRVGILGFIFSNDPDKLIEAASLSGRITHNHPTADAASVAGAYAVKLALDGIAPEDMFLPLLRVTEGISDEFTEALKHSYELAHSNLSDEEALQKLGQGWYADETFALAYFCILRYPDNYKKAVQTGVNITGDSDSVGSVAGGILGARLGIEAVPVSWVESLKEKEIIEEMVEPLIEKYLEVSENKHQVSEDGFGAMAGDPLEHHHHHH,soluble
16,MNSIHGHYHIQLSNYSAGENLQSATLTEGVIGAHRVKVETALSHSNLQKKLSATIKHNQSGRSMLDRKLTSDGKANQRSSFTFSMIMYRMIHFVLSTRVPAVRESVANYGGNINFKFAQTKGAFLHKIIKHSDTASGVCEALCAHWIRSHAQGQSLFDQLYVGGRKGKFQIDTLYSIKQLQIDGCKADVDQDEVTLDWFKKNGISERMIERHCLLRPVDVTGTTESEGLDQLLNAILDTHGIGYGYKKIHLSGQMSAHAIAAYVNEKSGVTFFDPNFGEFHFSDKEKFRKWFTNSFWGNSMYHYPLGVGQRFRVLTFDSKEV,not soluble
17,MNSMEHLLKQAIKLRKEKKYAQSKEILIGLTNFTRDAEVLYQCAWIHDVMGLETEAMPYYEQAIANGLEGESLCGAYIGLGSTYRCIGEYDKAITVLETGLQQFPGNDVMKVFLSLAKFNVNDHESAMKLLLETVVKLEHHHHHH,soluble
18,MNTAAGRKEDIRIPPRVAPDLNAPRVLVLNASYEPLQVTSIKRAITLLQYGVAEVLEQSRDVVRSPSTVMSVPSVIRLRRYVRRPRVGAVPFNRRNVLRRDHFTCQYCGSQDDLTMDHVHPRSRGGKHGWDNVVTACRTCNQRKGNLTPEEAGMPLHVPPHAPTFGVYAHGQFAHWQPEWSGYIRGLEHHHHHH,not soluble
19,MNTEIEIIATDKVSNQAAMRSVLVMEQWGNGETYSEERWVERGRQAVRQTMEGMFELGRALIILKEHTEHGRFMEIVKSQFGLGIAETSRLMSATRRFATPQMQKAAPKLMDLGKSKLLELLVEEDVTLVGLAEGEEVNGMTFDDVDRMTVRELRVALRESRENLAAKDEVMKTKTAKIDELAEKLAKKQTVVREPKAEDVGSELAMQLTSLEVGIRSQVSRLKDLFDQLNAHSEAHGISHQAKMVGTLNQIILDCEQLRESYALPTEAPTDNVPEWLGGETGEGDESGND,not soluble
20,MNTGPYYFVKNLPLHELITPEFISTFIKKGSCYALTYNTHIDEDNTVALLPNGKLILSLDKDTYEETGLQGHPSQFSGRKIMKFIVSIDLMELSLNLDSKKYERISWSFKEKKPLKFDFLLAWHKTGSEESTMMSYFSKYQIQEHQPKVALSTLRDLQCPVLQSSELEGTPEVSCRALELFDWLGAVFSNVDLNEPNNFISTYCCPEPSTVVAKAYLCTITGFILPEKICLLLEHLCHYFDEPKLAPWVTLSVQGFADSPVSWEKNEHGFRKGGEHLYNFVIFNNQDYWLQMAVGANDHCPPLEHHHHHH,not soluble
21,MNTKKFAKVNEQIPGPKAASLLERRQNIVPKGVSNGIPTFVQSANGALVTDVDGNQYIDFAGAIGTINVGHCHPAVKEALHKQVDQYIHTGFNVMMYEPYIELAEKLAALAPGSFDKQVLFLNSGAEAVENAVKIARKYTKRPGIIAFSKGFHGRTLMTMTMTSKVKPYKFGFGPFAPEVYKAPFPYEYRCPEGLTEEQYDDFMIEEFKNFFISEVAPETIAAVVMEPVQGEGGFIVPSKKFAQEVRNICSEHGILFVADEIQTGFSRTGKYFAIDHYDVVPDLITVSKSLGAGVPISGVIGRKEIMNESAPGELGGTYAGSPLGCAAALAVLDVIEKENLNDRAIELGKVVMNRFEEMKNKYNCIGDVRGLGAMCAFELVQDRKTKTPDKTLTANLCTEANKRGLLLLSAGTYGNVIRVLMPLVITDEQLEEGLTIIEESLQICYEKANTARV,not soluble
22,MNTMEEKYILSDRGKVYYWIKESNSVFAKNLIFLPGLTANHHLFDFQIQYFSKNHNVLVWDAPAHGKSRPYLDFSYSNLVEELKVILDKQNMKKVVLIGQSAGGFVAQSFIVKYPNMVEGLMMIGTCPYGTDYYSKSDIFWLKQTEWMLKLFPDKLLRNIISKMCGATSEGRRSMLKMLEGYEKKELCHLMYLGFAGFIPEIQDLNIHCPVCLVVGDKDKTGKVRKYNEQWHNKTGYPLHIIKNASHNVNVDKPNELNQIMDIFIKQLNI,not soluble
